Experiment [1] concerns the target Growth hormone secretagogue receptor (Homo sapiens) (UniProt Q92847). The settings on record: cited from earlier work.
The target of experiment [2] is T1, ghrelin (Homo sapiens, UniProt Q9UBU3, octanoylated ghrelin).
T1 chain: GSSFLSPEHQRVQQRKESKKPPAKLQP
Put plainly: fluorescence displacement of atto520-ghrelin.

Experiment [3] has as its target T1, ghrelin. The experiment can be described thus: fluorescence displacement of atto520-ghrelin (Goldstein-Barrett corrected).

One may read the Kd as the equilibrium constant for the complex coming apart. A word on the IC50: it is the concentration that gives 50% inhibition. High values mean weaker potency in that assay, low ones greater potency in that assay. One may read the Ki as the dissociation constant of the complex between target and ligand, obtained from inhibition or displacement. High values mean weaker binding, low ones tighter binding.

Ghrelin (from UniProt Q9UBU3): the equilibrium dissociation constant (Kd) in experiment [1] is 0.15 nM.

B1: GHS receptor (GHSR1a) (protein)
chain: MWNATPSEEPGFNLTLADLDWDASPGNDSLGDELLQLFPAPLLAGVTATCVALFVVGIAGNLLTMLVVSRFRELRTTTNLYLSSMAFSDLLIFLCMPLDLVRLWQYRPWNFGDLLCKLFQFVSESCTYATVLTITALSVERYFAICFPLRAKVVVTKGRVKLVIFVIWAVAFCSAGPIFVLVGVEHENGTDPWDTNECRPTEFAVRSGLLTVMVWVSSIFFFLPVFCLTVLYSLIGRKLWRRRRGDAVVGASLRDQNHKQTVKMLAVVVFAFILCWLPFHVGRYLFSKSFEPGSLEIAQISQYCNLVSFVLFYLSAAINPILYNIMSKKYRVAVFRLLGFEPFSQRKLSTLKDESSRAWTESSINT
In the experiment with ghrelin [2], B1 showed an IC50 of 6870 nM. In the experiment with ghrelin [3], this molecule yielded a Ki of 10 nM.

The values above are taken from paper PMC5384189 (2017).
